# Experiment: soluble on expression in E. coli; label from the status in PepcDB or PDB records
row,Sequence,soluble on expression in E. coli
1,MARLSGILADSDIQALIDNNFLKALWPFDAAQIQPASLDLRLGEKAYRIRASFMPGADVRVLDKLERLKLHEFDLRDGAVLETGCVYIVPLLENLALPEILSAIANPKSSTGRLDIFTRVITDNAQEFDKICVGYHGPLYLEISPRTFPILVRTGSRLFQLRFRKGHSYLNEIELHALHRDETLISDDLPNISAGGIGLSINLKGDENGLVGYRGKRHTSVIDIDKHAVANILDFWEPLFDRGQRELILDPDEFYILVSRESVHVPPLYAAEMTPFDPLVGEFRVHYAGFFDPGFGHMEAGGKGARAVLEVRSHEVPFILEHGQIIGRLVYEQMLKRPLALYGEDSGSHYQAQGLKLSKHFR,not soluble
2,MGSDKIHHHHHHMSSNSRVYGIVPSKRLGRSLGVSPIPFKTCTYSCVYCQLGRTTNFTVKRQTFFPLKVFEEELKGFVKRHRYDFDVVSIVGEGEPTLYTPLDALIDLCKSITGKPVVLITNGSLFWSEKVRKEAKLSDIIMPTLSAWDEKSFRTIHKPHKNLSFQKVFEGLKKFRREYSGEIWLEVMLVKGLNDFALEELKEKISQVESDRVYVNVPVRPPAEGWVEPPDEETIEKAKELFNAASIETPAASRFIAAGEGIDAVLNVIKRHPMNEEEVRDLLTSQKIDPKPVLEKLRSCKNVKIIEYSGRRYYRYTTAE,not soluble
3,MAHHHHHHMPLCASIPATVDTDTNTRALYLDDLDKCMKNFSSALASTMNAYQNLLTAFDQVAQVYGNVAQECGDEVRKPVGEFRDGMRDLKDKGGFETFNHEIHVGTIAVIEPVKSDLKKALKSLKCLRLKQKEYDAVRYDLEQTEKSYAKKNKPLVTSSSYKKTLAKRDKVKTSYDASREAFGEEINALQATTKSVLLQSLNNYLHCTAAFCGQLEATMNGYRTDVDHHGSTTFTNDQMDKLKEKAEAESMARRAKRKSEASNPFQTGYDVTSNNSHRNLPSVDDGLYQKKDSLVDTESVNRYPNAEFAPPMQNGGDDNFTLREQYDDGAPGDADDVNPLVDANNDE,soluble
4,MGSDKIHHHHHHMPNIEKYEIFLDFNGNEYEGVEKIYLNSEEEKLELDSVNLEIRSVKSDGKDTKFELKGEKLVIYGKIERELEIKFKGKASRDSILGIYVAPYDGKGMITTQFEAVYARRFIPCFDHPAMKARFKLSVRVQKGLKVISNMPVERIEEDVDGKVIYRFQETPKMSTYLLYLGIDEFEEISDNSKQPTVILATVPGKSKRGLFAINVARKVIEFYEKYFEIPYQLPKVHLIQVPEFAAGAMENWGAITFRETALLADDSSSISQKFRVAEVVAHELAHQWFGNLVTLKWWDDLWLNESFATFMSYKSIKHLFPQWDSEGHLIYDESIGALEDDSLSTTHPIEAHVKDPHEIEQMFDNISYGKGASILKMIEAYVGEENFRRGVVNYLNSFKFGNAEGKDLWNSISNAAGQSIGEIMADWITKPGYPVIFVNAYGNSIRFSQKRFTLLDSGLNEVYKVPITYEINDKFGTLLLDKESAEIRLDEGLKSIKVNINRTGFYRVLYDSLNLAFSSKLNAYEELGLVNDYWNFLLADLIDAKTYFGVIGRFVYTSNSFVSREITSQLLTLYYLFKKNYGKDFLVNQVKIFRKANDDLGKLAYSTVISALARMDEEFALGLSTLFDQYENIDSNIKEAVAIAYAVTNNDFNTLLEKYKRYTIDEEKNRILSAISSLRDPSIVVKVFSLIFERNIKAQDTRFVISSLLHNPHIREEVCSYLMNNFEEVKKFVNTVYGGPWGLGSIVRSMSFCGVDKPKDIIDFLEKVKFKEIERPIKESEERIKVYSRLKQNLP,not soluble
5,MSLKKIWLGILISVCTLLGADMSLWQKSTLNEIIKRGELRVGLEPGYLPFEMKDKKGNVIGFDVDLAREMAKAMGVKLKLVPTSWDGLIPGLVTEKFDIIISGMTISQERNLRVNFVEPYIVVGQSLLVKKGLEKGVKSYKDLDKPELTLVTKFGVSAEYAAKRLFKNAKLKTYDTEAEAVQEVLNGKADMFIFDLPFNVAFMAQKGQGYLVHLDTSLTYEPLGWAIKKGDPDFLNWLNHFLAQIKHDGSYDELYERWFVDTKWLEKIQEGHHHHHH,soluble
6,MCPGVMGVGSTQSIVLVPGFPKPSTMNVQWKAEGAASQKDASTHKDWSSQVSSITCKPEKPETLPLGHFINGDFIVIIPAGGRALLSATGNAL,not soluble
7,MGTVLFEDKASETKGSDIYHRIIPDAESYIKEQARTVLATLYNSPEDSITPVNKIHYTLEDIEGISAKGGGNGDVTIFYSTRHIEKSFAENDTAKLFFETRGVLLHELTHAYQLEPQGIGSYGTNRVFWAFIEGMADAVRVANGGFDGPNARPKGGNYMDGYRTAGYFFVWLRDNKDPEFLRKFNRSTLEVIPWSFDGAIKHILGTEYSIDELWHEYQVAVGDIQVLEHHHHHH,not soluble
8,MSLHELKAAAFPQTTEKISPNWESGINVDLAISTRQYHMQQLFYRYGENNSLSVEGFRKLLQNIGIDKIKRIHIHHDHDHHSDHEHHSDHERHSDHEHHSDHEHHSDHNHAASGKNKRKALCPDHDSDSSGKDPRNSQGKGAHRPEHASGRRNVKDSVSASEVTSTVYNTVSEGTHFLETIETPRPGKLFPKDVSSSTPPSVTSKSRVSRLAGRKTNESVSEPRKGFMYSRNTNENPQECFNASKLLTSHGMGIQVPLNATEFNYLCPAIINQIDARSCLIHTSEKEGHHHHHH,not soluble
9,NSSFTPSTVPNINFSGLNGGITNTATNALRPSDIFGANA,soluble
10,MGSDKIHHHHHHMALIIAGERSGVGKTTTTLTLLAALKARQASVQSFKVGPDYIDPMFHRFVTGRDCRNLDPILTDEDYVQHCFQQHSQTADYTLVEGVMGLFDGLTGKTDTASTAHIARILNLPILLVLNCSSTARSIAAIAYGYQNFDSRLKIAGLVLNRVGSDRHLELLKDALEPLEIPILGVLRRQDEIQIPDRHLGLIPTSELPHLQSVIDRLAVLGQQCFDWNRLEPLLSNSDLNSTAFKSTTPSISLKSSVPIAIARDRAFNFYYADNFDLLRAAGAELIEWSPLQDRQLPAGVQGLYLGGGFPEVFAAELSDNLLARQAVQTAITQGIPCYAECGGLMYLCQHIIDFEQTQYPMVGAIAATAQMGSRLTLGYREATAQQASPLLQKGQVVWGHEFHRSSLREPIAQPLFQLQNFDGSLHYGEGYSQPNLHASYLHLHFGGKPWLIQNFLQACQQATALSR,not soluble
11,MGSDKIHHHHHHMLEIIMSSIKSRQLTHSALASNIDIHDVTHFLLELDALKRVNRRSYVTGANRLENSAEHSWHLAMACWSIAELFELDVNQEKLLKMALVHDLGEIDAGDTFLYADTRGDAHLEERAGIARLQGERGNGISNLNEIWEEQETGSSTETQLLKVVDRLLPFLLNLNTNGKTWIELSVTRSQVSEAHAFIKDSFPSIHDWLAAQIEFATQQGWLIDT,not soluble
12,MGSDKIHHHHHHLFLNSLKLKDFRNYKSLQVDFSNSINVLIGDNAQGKTNLLEAIYILSMARSHRDNNDRDLINWSSDFSDITGEVQSKMGKFPLEVRITRTGKKVFVNHLTENRLSDYIGNLHTVLFAPEDLDLVKGSPGVRRKFIDSEFGQMSANYLFNLLQYRSVLKNRNAYLKNIKWIGNNPKIDEDYLKVLNDQLIDFGSEIIFQRFVLVKELEKYSYQIHKAISRNEKLTIKYASFSGIDDQSTKEEISKIFNNQLLKNKTRELFLKSTSVGPHHDDLKFSINGKEVGSFASQGQQRTTALSVRLAEIEMMKYETGEYPILLLDDVLSELDGDRQTQLLNFIQDKVQTFLTTTSLSDVERDLIKDPKIYQVKGGTLVNG,not soluble
13,MGSDKIHHHHHHMKKVLGGLLVATAVVSLAACSGGEKKASSDVSIKDRYELDEKTPAWKLDKKKEPTKIKWYINSDWTALPFGKDVTTAQIKKDLNVDIEFISGDDSKLNAMISSGDMPDIVTLTEKTGQAALKADSWAYSLNDLAKKYDPYLMKVVNQDTFKWYALEDGKTYGYPNYSNTKADYESGNIPVNDNFVIREDVYNALGKPDVSTPENFEKVMQQIKEKYPEMTPMGFTTVGDGAGPFLDKLQDFLGVPLEDKNGKYYDRNLDKEYLEWLKTFNDVYRAGNISDDSFTDDGATFDEKVKQGNYATMLVAGTSGQGGNFTEFMKKSGTRYIAIDGPSSTSGRKPTLNQTGISGWLSNYITKDAKDPAKVTQLFTYLIDEPGQILTKYGVEGVTYAYNDQGKIDYLPEVKKLEQTDNDAYNKKYGISRFLYFNNDRVNKLKVPMESALTQMQEWGKGKLVPHFVIENINPDAGTPEARANEAIETKLNTTVISMIRAKDDKAFDKSLEDYKAFLKSNKWDAIEKIKSEKMAENRDKLK,not soluble
14,MAHHHHHHMMRSPFERLYHLNNRRDRDERRNKVFQLSLLERIRDRIVSGSLKEDIARKEERLRKQEEMLTSPNGVFVRLYQNSSPRRSSNAAAEGSDCKSVGEGNRDGRASVNTTGVSSQRASTARSRMSAAESQELCNRLYETAAIVKQKKEAMRKQSVEERQRQQAEELLIARLAGQIQLERSRTRASSKRRPKTPAQLEDEARAALEKLRKEDPEGYEKKVLRGRLLSPAERVMQAERLWKHGYISKAKLEAQKKVLELKKCTFQPTINEFSGSAGVAGSGETRGKGGGGTNDDKHLSAGTDRAQRHRKANRFEELYRKGIQAKVRGETLREERDREARLRILRSRMVSDHHFRRRVELDPLLAERFMKSLVV,not soluble
15,MGSDKIHHHHHHMPTPTRWQEKLPEAATTYLEGRRLDEVECVISDLPGIARGKAVPASKFAKQDYFYLPDSIFYQTITGDWAEAADEDGWIEKDMLLRPDMSTATAAPWTGDWTLQVIHDAYDRDGNPIPFSPRNVLKHVVSLYEAQGWKPVVAPEMEFYLVARNVDPARDIQPMMGRSGRPAAARQAYSMTAVDEFGPVIDDIYDFAEAQGFEIDGITQEGGAGQLEINLRHGSPVKLADEVFYFKRLIREAALRHDCFATFMAKPIADEPGSAMHIHHSVIDIESGENIFSGPQGGETDAFYHFIGGLQNHLPAGLAVMAPYVNSYRRYVKNHAAPINLEWARDNRTTGIRVPLSSSASRRVENRIAGMDCNPYLGIAVSLACGYLGLMEERRPTRQFKGDAYEGEGDFPQVMGQALDLFDESKALHEVLGPEFARVYSTVKRAEYEEFLQVISPWEREHLLLNV,not soluble
16,MSNTVTLRADGRLFTGWTSVSVTRSIESVAGYFELGVNVPPGTDLSGLAPGKKFTLEIGGQIVCTGYIDSRRRQMTADSMKITVAGRDKTADLIDCAAVYSGGQWKNRTLEQIARDLCAPYGVTVRWELSDKESSAAFPGFTLDHSETVYEALVRASRARGVLMTSNAAGELVFSRAASTATDELVLGENLLTLDFEEDFRDRFSEYTVKGYARANGAEGDDIDAKSIVSRKGTATDSDVTRYRPMIIIADSKITAKDAQARALREQRRRLAKSITFEAEIDGWTRKDGQLWMPNLLVTIDASKYAIKTTELLVSKVTLILNDQDGLKTRVSLAPREGFLVPVESDRKNRKGGDSNGGIDALVEDYYRRHPEKTPPWKE,soluble
17,MSLSGETELTFWTFSGLHEQFYVEMVKEWNKKYPDRKIKLNTVVYPYGQMHDNLSISLIAGEGVPDIADVELARFSNFLKGSDIPLADLTPLIEKDRDKFVEARLTLYSKNGKLYGLDTHVGTTVMFYNMDVMKKAGVNPDDIKTWDDYHKAGQKVRKVTGKPMGTVETNDSATFLSMISQQNSGYFDKNGKLILNNDTNVKTLQYLKDMINDKTMIPAPGGGHHSEEYYGFMNQGGAASVLMPIWYMGRFIDYMPDLKGKIAIRPLPAWKEGGDRSAGLGGTATVVPKQSKHVELAKEFLAFAKGSEEGNKKLWSVLGFDPLRWDVWSSKELKEKNKYTDYFQNGTGIFSVLLDIKDEINPIYLHEDFAKASDLVNRSVLFDALKSQQKTPKQALDRAAGELKQKEGHHHHHH,soluble

# From the DeepSol protein solubility set
